Assay: soluble on expression in E. coli; label from the status in PepcDB or PDB records

| Sequence | soluble on expression in E. coli |
| --- | --- |
| MSATKSEMPADVASVTDSSAASPAFPLIGDFLEEFLKCQVCCTNYNETTKLARGLHCGHTFCTECIKTMQKYGNSAYLECPSCRAETKCDIAAVSTNFAIMELIRKCGFLGPEKPEEPPMKQAAQPQLEQTIDELIDEGYRLLIADVKADLMAKFEQLRDVSKTSTIEATKADLEVLCDSVKEAVYEADLEYSYDEEESDEDEEENEDEEDVEEEEEKPCAEKKSPAQPERSSSLVRGFQIGLSRLFRNRRIHTEHLQVDHGAIATKLETRAACTEKSDNVKK | not soluble |
| MGSDKIHHHHHHMDQQTVLPEQDHDKSAIDELDFSCHSSGNFPGILAGLKLSLVVTSYQAHRLFFVRSNGIQIDVNFKNFVRPMGISVTPQQITLGTLNQVWRFRRSDDALALLDDPHADACYVASACHTTGLINIHDIAYGNKGLWVTNSAFSCLATLEPDYSFVPRWKPDFISALAPEDRCHLNGMALLDGEPAYVTTFNQSDTARSWRDGAKDQGTLINIKTGEQIFSNLTMPHSPRCYNGYVYFCESGHGLVRRYDPRTNEVVDVVKLAGFTRGMDFFGPLMFVGLSKTRFSSVAEPAPIAQQLEESQSGIWCINLTDHSVVGFVRFEGNIDQIYDVAVLSGVMYPELLLPDDELSMSVFNFPPLSYASEN | not soluble |
| TDYAVTALRAWTRPLNYDIEHVYRITLATVQKDKDGKWKERSADQGKTMMQTLDLIAAYPGVEAACLQQWGGHYSSSSSNSSFQLDTVSLINVEDRMVSPDYFRVFRVYGADGSSPEEMAERFGKLHMNDLQRDYYLSRNALDYVEKVNGEGRESDRRYIGMSDSINYNMVSVVDGVQSEKSIRYNQTLRGLIPDQPKNEAESTGYISLKPITEEYISQNELISYSVYLRVSPEADTPDFKEQFVKRMKAVTKDDTYPVLTMNAVSEDRAGILADPVRQINNH | not soluble |
| MGSDKIHHHHHHMKEILLKAENVRAYYKLEKVSVKAVDGLSFEILEDEVIGVVGESGCGKTTLSNVIFMNMVKPLTLVDGKIFLRVNGEFVELSSMTRDEVKRKFWGKEITIIPQAAMNALMPTIRMEKYVRHLAESHGIDEEELLDKARRRFEEVGLDPLWIKRYPFELSGGMRQRAVIAIATILNPSLLIADEPTSALDVVNQKVLLKVLMQMKRQGIVKSIIFITHDIATVRQIADRMIIMYAGKIVEFAPVESLLEKPLHPYTQGLFNSVLTPEPEVKKRGITTIPGAPPNLINPPSGCRFHPRCPHAMDVCKEKEPPLTEIEPGRRVACWLYMEERA | not soluble |
| MSMKGKETMSNEKIVVGKFGATYGIRGWLKVFSYTDNAESIFDYSPWYINQKGKWVEYKVESWKRHNKGMVAKLEGMDVREDAHLMTNFEIAIDPAVLPELSEDEFYWRELFGMHVVTTKGYDLGVVTDMLETGSNDVLVVKANLKDAFGQKERLIPFLEEQVIIKVDREAQRIEVDWDPGFLEHHHHHH | soluble |
| MGSDKIHHHHHHMPTLEPKIPGISLNYVVPTPEPELLTGVPVFFGLVTEEVKEAKKLTLATHFQQYFGQAKGYLADAIKGFFENGGRLCYVIALSNNTLEALQQGLETSEVLENIDLICVPDIMLGSDGEVIQMQQAILKHCEQMGDRFAILDALNDIGKLNEQRKRISSQNGALYAPWLKVEFRVDPIPACGHIAGIYASCDRTVGVHGAPANIPLAGVLDLSFSLTPTDQEQLNPKNEAGVNCIRSFQGRGMRVWGVRTLSPIPEWQYVNVRRLFLTFGRWVNRNLADTVFEPNAFPLWVRLQRELSIYCESLWRQGAIQGALPQEAFYVKCDAETNPPENREMGQVIAEIGLAPTIPGEFIQLLVVQSSSGITLT | not soluble |
| MDASLTGAVAELGTSKAAARIRAAAIEVFAAKGYGATTTREIAASLDMSPGAVYPHYKTKESLLYAISLEGHHSVLAAITAADFPDIAAPDRLMSTVTAYVTWHADNRASARVGQYELRSLSPEHFAIIADIRRSTTKVFTRIIEAGATAGDFHPFDIEAAALAITSLGIDVSRWFPSHTYSDPRIIAARYVELALRMVGCADRQPLDKPS | soluble |
| MSKWLNVGKIVNTHGVRGEVRVLSTTDFEDDRFSSGKTLYVMRPNQNERVAVTVASHRKHKNFDLLCFEGYPSINDVEAFKGGRLQVPIEDRPELGEGEFFYHEIIGCSVVTIAGEELGKVKEILSPGANDVWVVQCRRGGKDLLIPYIEQVVKQVDLEKQQITIEPMEGLLEAAALEHHHHHH | soluble |
| MGCAQSTPVDQPARQQPQATQQKSVEPAVVKKPVEPARVEPKVEVPSTKPSEVPHVEKAQSINRGQPGDGSGPLQQPSPAMPGAKQGGTKERRAAAGSEAVRDQIRKLAVGGPQAKEEKEKIYEVSDSEDEELEDDPSERTTLSGDWYKPQEVTDAILEALKRNFVFKGIPQNHLVEVVGRMYGISFKSGAVVLQQGALPKQDDCMYYLQQGEAEVVISGGADASKNHGEERKVDGHTVRIPQKPGWLFGDVALLFHSPRTASVVAKTNITVWAMDRRTFLKFVMKHAQGARALRFLRKLPLLKGLSDNDLIRAASRMPQRMYEDGQPLIRIGERGDELFLIRYGKVRVFRPDGNGGRVEVAVLGRGQFVGERAVINDKLRSADCVAQGQVQVVVLKKREFMDLDNPLLAWMLDYDAVSAVIRSLPQFKGLKQEQMENILDRFDAREELMQGDTILNQGDMLEKLYVVKIGEIALFRNDERVEDPNFVHEIAGFSYFGETAITQTGKCPYTIRVASESLHLLSLPKRQVDSFMGRDTGLKNEEAVVAALKKSKFLANMTDPEFKELLKACEQTDYNPGEVIAVANSSVTNKIFLVKSGEVMVVAADLALPDTGEVDVRKLTGSERQRLLAGSIFNDKALNSPETASLEASLVAGTPCGIITFTTSDVERVMGGRAMSRSRNAMPGAAAAVEERKFPRVKFTELEFHRIIGTGQFGLVRVVRNIKTNEVYALKVMHKAPIVESKQIEHVINERKILEEACTHPFCVRLCGAYQDKASLYLLQEWVPGGELFHHLDVEGAFDEPTAMFYAANVLLALEFLHAKGIVYRDLKPENLLLDTQGYIKMADFGFAKYIGGDKTYTICGTPDYQAPEVIMRRGTTKAADYWALGVLIFEMLVGDPPFKSLTGDPWDTFRRTLSGRFYVPNFISDQAADLIFKLLQVNPDKRLGSDKRLGAEEIKRHRWFSRIDWRALEQKKLPSPFRPRVRNPLDTSNFDNFDNVDLEPPPVPADRAEKHSQQWELWDWIDDSK | not soluble |
| MSTDSTNYAAKHESLGKSVQRELQKTQSQLRQVVRKMQSKYNINNKARVAEISLLRQMQSQFSRKYVNKNLGNSNTLAQQGSYTKKDGTTAQAGDLLLAADNLHSRLTDKMLSISHVRENTISPFVLGCLKQITINAYHYLK | not soluble |
| MGSDKIHHHHHHMKKPFLHSESAADVGMEIQQSYDRLLETTRKWIDILHFDPLLETGLTPRDIVWRKNKSRLYRYVNHKGYKHRTPILMLYALINKAYILDLRPGMSLVEYLVDQGFDVYLLDWGEFDWEDRDLSFSQLIVDYISRAVYKVCQYSNVNELSILGYCMGGTMATMYASLYPQPRIKNMIYVAAPIDFEDAGLSSIWLKASVFDVDKVTDTFSLIPKEFVDLGLKMLNPVNNFVATYTRLWKAIDEGVSIEAWKALNKWVDDNINFPGKAYREWVKYLYQENALVKDEFIINGRKVVLSNIDAALLVLTGKTDHIVLPQQSTPILELSSSQDKTNLQYPVGHGGLVFGSRARNEVYPTIAEWLAQRS | not soluble |
| MLTKANPPPSKTSPLKVWAVSDGRAGIEAQVVGLAEAISRLAPCEVTVKRVGWQGNIGRLPWWLNLLPKRWLTQESGVPDSRNPDDWPDLWIAAGRATLPLSIRAKRWSGGKSFVVQIQDPRVPPHMFDLVIPPKHDRMSGDNILPITGSPHRVTPQRLAAEYEAFQDLIEPLPRPRVAVLVGGKSKAFDLSSERAAQIAHSIQIPLEQDGGSLLMTFSRRTPETARALMTARLRHLPGVVWNGEGPNPYFAFLAAADYILVTEDSTNMATEAASTGKPVFVLKMDGSSLKFRLFHEELERQGAARPYGGAFHGWTYTPVNETDRAAREVLARIGLEHHHHHH | not soluble |
| MAGVTKEQIAKAKEWDLLSYLQAYEPQELKKSGPREYCTRTHDSLKISNGKWCWNSRGIGGRTALDYLIKVRGMDFVGAVETLCGYCAPPPEKAPPIKEKQPKPFRLPQASRCASAVVGYLQDRGIDPELLGVCMEAGILYESCKYQNCVFVGRDTAGNARAASLRGTRDGFRMDVEGSDKRYSFCLPAGKADCPRLAVAESPIDALSLATLVKLSGGEPRDSHYLSLGGTGPRALIQFLHDHPHVTQVSLCLDNDKAGLEGMERLTQEIQNDAELSRRVKLVYPNPPKQGKDYNEFLCTHVKAVRTAQRQRDAAR | not soluble |
| MKRPNFLFVMTDTQATNMVGCYSGKPLNTQNIDSLAAEGIRFNSAYTCSPVCTPARAGLFTGIYANQSGPWTNNVAPGKNISTMGRYFKDAGYHTCYIGKWHLDGHDYFGTGECPPEWDADYWFDGANYLSELTEKEISLWRNGLNSVEDLQANHIDETFTWAHRISNRAVDFLQQPARADEPFLMVVSYDEPHHPFTCPVEYLEKYADFYYELGEKAQDDLANKPEHHRLWAQAMPSPVGDDGLYHHPLYFACNDFVDDQIGRVINALTPEQRENTWVIYTSDHGEMMGAHKLISKGAAMYDDITRIPLIIRSPQGERRQVDTPVSHIDLLPTMMALADIEKPEILPGENILAVKEPRGVMVEFNRYEIEHDSFGGFIPVRCWVTDDFKLVLNLFTSDELYDRRNDPNEMHNLIDDIRFADVRSKMHDALLDYMDKIRDPFRSYQWSLRPWRKDARPRWMGAFRPRPQDGYSPVVRDYDTGLPTQGVKVEEKKQKF | soluble |
| MCENEEYRERFPDKHFDLETVLQAKVRPICVVPERTFIGFFHREKSKEEEEKEDVSLDFLKGVMSFDSIWEEIMKQEPEESASEHVIYIVSWNDHYFVLLVNHDAYYIIDTLGERVYEGCNQAYVLKFDQDAEIKRLPSVIKDNKADMGSQKQGGKNKYEQPERSKESEEQGEEVVVCRGKESCREYIKSFLAAIPIQQVKADMKEGLVSSFHHRLQIELYYTKHLHHRQPNMFESSTTKVTVSEATVSMTVAWLLASQFSNSGGFGCEMAELLGIKV | soluble |
| MGSDKIHHHHHHMSIHPALESVGQLFGANLIFRVPRYQRYYAWDAEQIGDFLADLELCLKARAGGNRREHFFGGLVTVRTDVEGSSRQNMEVIDGQQRLASFSMLAAQLRNAAVQLAESVDAAVPDNPKEFLLEFAKTLKAEFERYKDKIKLQVVEIDRLELSKPDLIFFKDLVEGRNPTPSRMSHRLLKQAWDRIGAKLAQIVASENTDVEKAQALSLVDTVMEEDWNPHPHDH | not soluble |
| MALVEFLMETLDGLKGTDIVHFDVRGKSSITDNMIICTGTSSRQVSAMADNLITECKKAGFETFGEEGKNTADWIVVDLGQAIVHIMQRDAREMYQLEKLWALEHHHHHH | not soluble |
| MSLSQLREIQQQFMDYLLASAAQTPIPETIEKPFSDKVAEQGGVGRDIRMQIYANAYRIRLTEVLDTDHEILGLYLGDDLFARMANGYIAHQPSRFTSLRQFADALPGYLASDAFFSQYPIISDIARFERRLLNAFDAKDEQRASFAALQSLPADAWPYCQLRFHPSVQLFECASNAVETWQALKHQQVPPAPDYQGKHAWLLWRGENRLTEFISLAEYQLALIQGFIHGANIAEQCELMLNFFTPEEAMQQLLQALQAWFQLGLILSVQPNEGHHHHHH | not soluble |
| EVLVTGYQTLSKERSTGAFSKVSTEKLELKRMDNLSSMLEGQVAGYVNGQIRGVTTMNAVANPMVVIDGFPVENTTLDRIGQTTENMPDLNPEDIESVTVLKDAAAASIYGARAANGVIVITTKKAK | not soluble |
| MIILNIPLFKGLTLEQIEDMKNKHCMTEKKYKKNSFIFRAGDIVHEIGIVLEGSINIEMIDMWDNKSILSNIDVGQIFAESYALCNEPMMVDAVATKDSTILMLNMRQIFAPINNSASWYNTFTYNLLVLSTRKNLTLSTRIFCTSSKSVRGRVLTYLSNQSIKHNNTEFQIPFNRQQMADYLNLDRSALSKELGKMQDEGIITFNKNRFKLNINYDSEF | not soluble |

From the DeepSol protein solubility set
